The values below come from US20210388087A1 (Chugai, published 2021).

B1: H183/L072 VH M34P (antibody, name in Kabat numbering, V domains shown)
VH: QVQLVESGGGLVQPGRSLRLSCAASGFTFSNAWPHWVRQAPGKGLEWVAQIKDKGNAYAAYYAPSVKGRFTISRDDSKNSIYLQMNSLKTEDTAVYYCHYVHYASASTVLPAFGVDAWGQGTTVTVSS
VL: DIVMTQSPLSLPVTPGEPASISCQASQELVHMNRNTYLHWYQQKPGQAPRLLIYKVSNRFPGVPDRFSGSGSGTDFTLKISRVEAEDVGVYYCAQGTSVPFTFGQGTKLEIK
B2: H183/L072 VH N31W (antibody, name in Kabat numbering, V domains shown)
VH: QVQLVESGGGLVQPGRSLRLSCAASGFTFSWAWMHWVRQAPGKGLEWVAQIKDKGNAYAAYYAPSVKGRFTISRDDSKNSIYLQMNSLKTEDTAVYYCHYVHYASASTVLPAFGVDAWGQGTTVTVSS
VL: DIVMTQSPLSLPVTPGEPASISCQASQELVHMNRNTYLHWYQQKPGQAPRLLIYKVSNRFPGVPDRFSGSGSGTDFTLKISRVEAEDVGVYYCAQGTSVPFTFGQGTKLEIK
B3: H183/L072 VH N53Y (antibody, name in Kabat numbering, V domains shown)
VH: QVQLVESGGGLVQPGRSLRLSCAASGFTFSNAWMHWVRQAPGKGLEWVAQIKDKGYAYAAYYAPSVKGRFTISRDDSKNSIYLQMNSLKTEDTAVYYCHYVHYASASTVLPAFGVDAWGQGTTVTVSS
VL: DIVMTQSPLSLPVTPGEPASISCQASQELVHMNRNTYLHWYQQKPGQAPRLLIYKVSNRFPGVPDRFSGSGSGTDFTLKISRVEAEDVGVYYCAQGTSVPFTFGQGTKLEIK
B4: H183/L072 VH P61I (antibody, name in Kabat numbering, V domains shown)
VH: QVQLVESGGGLVQPGRSLRLSCAASGFTFSNAWMHWVRQAPGKGLEWVAQIKDKGNAYAAYYAISVKGRFTISRDDSKNSIYLQMNSLKTEDTAVYYCHYVHYASASTVLPAFGVDAWGQGTTVTVSS
VL: DIVMTQSPLSLPVTPGEPASISCQASQELVHMNRNTYLHWYQQKPGQAPRLLIYKVSNRFPGVPDRFSGSGSGTDFTLKISRVEAEDVGVYYCAQGTSVPFTFGQGTKLEIK
B5: H183/L072 VH N31I (antibody, name in Kabat numbering, V domains shown)
VH: QVQLVESGGGLVQPGRSLRLSCAASGFTFSIAWMHWVRQAPGKGLEWVAQIKDKGNAYAAYYAPSVKGRFTISRDDSKNSIYLQMNSLKTEDTAVYYCHYVHYASASTVLPAFGVDAWGQGTTVTVSS
VL: DIVMTQSPLSLPVTPGEPASISCQASQELVHMNRNTYLHWYQQKPGQAPRLLIYKVSNRFPGVPDRFSGSGSGTDFTLKISRVEAEDVGVYYCAQGTSVPFTFGQGTKLEIK
B6: H183/L072 VH N31P (antibody, name in Kabat numbering, V domains shown)
VH: QVQLVESGGGLVQPGRSLRLSCAASGFTFSPAWMHWVRQAPGKGLEWVAQIKDKGNAYAAYYAPSVKGRFTISRDDSKNSIYLQMNSLKTEDTAVYYCHYVHYASASTVLPAFGVDAWGQGTTVTVSS
VL: DIVMTQSPLSLPVTPGEPASISCQASQELVHMNRNTYLHWYQQKPGQAPRLLIYKVSNRFPGVPDRFSGSGSGTDFTLKISRVEAEDVGVYYCAQGTSVPFTFGQGTKLEIK
B7: H183/L072 VH N31Y (antibody, name in Kabat numbering, V domains shown)
VH: QVQLVESGGGLVQPGRSLRLSCAASGFTFSYAWMHWVRQAPGKGLEWVAQIKDKGNAYAAYYAPSVKGRFTISRDDSKNSIYLQMNSLKTEDTAVYYCHYVHYASASTVLPAFGVDAWGQGTTVTVSS
VL: DIVMTQSPLSLPVTPGEPASISCQASQELVHMNRNTYLHWYQQKPGQAPRLLIYKVSNRFPGVPDRFSGSGSGTDFTLKISRVEAEDVGVYYCAQGTSVPFTFGQGTKLEIK
B8: H183/L072 VH N31S (antibody, name in Kabat numbering, V domains shown)
VH: QVQLVESGGGLVQPGRSLRLSCAASGFTFSSAWMHWVRQAPGKGLEWVAQIKDKGNAYAAYYAPSVKGRFTISRDDSKNSIYLQMNSLKTEDTAVYYCHYVHYASASTVLPAFGVDAWGQGTTVTVSS
VL: DIVMTQSPLSLPVTPGEPASISCQASQELVHMNRNTYLHWYQQKPGQAPRLLIYKVSNRFPGVPDRFSGSGSGTDFTLKISRVEAEDVGVYYCAQGTSVPFTFGQGTKLEIK
B9: H183/L072 VH N31G (antibody, name in Kabat numbering, V domains shown)
VH: QVQLVESGGGLVQPGRSLRLSCAASGFTFSGAWMHWVRQAPGKGLEWVAQIKDKGNAYAAYYAPSVKGRFTISRDDSKNSIYLQMNSLKTEDTAVYYCHYVHYASASTVLPAFGVDAWGQGTTVTVSS
VL: DIVMTQSPLSLPVTPGEPASISCQASQELVHMNRNTYLHWYQQKPGQAPRLLIYKVSNRFPGVPDRFSGSGSGTDFTLKISRVEAEDVGVYYCAQGTSVPFTFGQGTKLEIK
B10: H183/L072 VH N31A (antibody, name in Kabat numbering, V domains shown)
VH: QVQLVESGGGLVQPGRSLRLSCAASGFTFSAAWMHWVRQAPGKGLEWVAQIKDKGNAYAAYYAPSVKGRFTISRDDSKNSIYLQMNSLKTEDTAVYYCHYVHYASASTVLPAFGVDAWGQGTTVTVSS
VL: DIVMTQSPLSLPVTPGEPASISCQASQELVHMNRNTYLHWYQQKPGQAPRLLIYKVSNRFPGVPDRFSGSGSGTDFTLKISRVEAEDVGVYYCAQGTSVPFTFGQGTKLEIK
B11: H183/L072 VH N31T (antibody, name in Kabat numbering, V domains shown)
VH: QVQLVESGGGLVQPGRSLRLSCAASGFTFSTAWMHWVRQAPGKGLEWVAQIKDKGNAYAAYYAPSVKGRFTISRDDSKNSIYLQMNSLKTEDTAVYYCHYVHYASASTVLPAFGVDAWGQGTTVTVSS
VL: DIVMTQSPLSLPVTPGEPASISCQASQELVHMNRNTYLHWYQQKPGQAPRLLIYKVSNRFPGVPDRFSGSGSGTDFTLKISRVEAEDVGVYYCAQGTSVPFTFGQGTKLEIK
B12: H183/L072 VH M34V (antibody, name in Kabat numbering, V domains shown)
VH: QVQLVESGGGLVQPGRSLRLSCAASGFTFSNAWVHWVRQAPGKGLEWVAQIKDKGNAYAAYYAPSVKGRFTISRDDSKNSIYLQMNSLKTEDTAVYYCHYVHYASASTVLPAFGVDAWGQGTTVTVSS
VL: DIVMTQSPLSLPVTPGEPASISCQASQELVHMNRNTYLHWYQQKPGQAPRLLIYKVSNRFPGVPDRFSGSGSGTDFTLKISRVEAEDVGVYYCAQGTSVPFTFGQGTKLEIK
B13: H183/L072 VH P61L (antibody, name in Kabat numbering, V domains shown)
VH: QVQLVESGGGLVQPGRSLRLSCAASGFTFSNAWMHWVRQAPGKGLEWVAQIKDKGNAYAAYYALSVKGRFTISRDDSKNSIYLQMNSLKTEDTAVYYCHYVHYASASTVLPAFGVDAWGQGTTVTVSS
VL: DIVMTQSPLSLPVTPGEPASISCQASQELVHMNRNTYLHWYQQKPGQAPRLLIYKVSNRFPGVPDRFSGSGSGTDFTLKISRVEAEDVGVYYCAQGTSVPFTFGQGTKLEIK
B14: H183/L072 VH N31F (antibody, name in Kabat numbering, V domains shown)
VH: QVQLVESGGGLVQPGRSLRLSCAASGFTFSFAWMHWVRQAPGKGLEWVAQIKDKGNAYAAYYAPSVKGRFTISRDDSKNSIYLQMNSLKTEDTAVYYCHYVHYASASTVLPAFGVDAWGQGTTVTVSS
VL: DIVMTQSPLSLPVTPGEPASISCQASQELVHMNRNTYLHWYQQKPGQAPRLLIYKVSNRFPGVPDRFSGSGSGTDFTLKISRVEAEDVGVYYCAQGTSVPFTFGQGTKLEIK
B15: H183/L072 VH N31V (antibody, name in Kabat numbering, V domains shown)
VH: QVQLVESGGGLVQPGRSLRLSCAASGFTFSVAWMHWVRQAPGKGLEWVAQIKDKGNAYAAYYAPSVKGRFTISRDDSKNSIYLQMNSLKTEDTAVYYCHYVHYASASTVLPAFGVDAWGQGTTVTVSS
VL: DIVMTQSPLSLPVTPGEPASISCQASQELVHMNRNTYLHWYQQKPGQAPRLLIYKVSNRFPGVPDRFSGSGSGTDFTLKISRVEAEDVGVYYCAQGTSVPFTFGQGTKLEIK
B16: H183/L072 VH N31L (antibody, name in Kabat numbering, V domains shown)
VH: QVQLVESGGGLVQPGRSLRLSCAASGFTFSLAWMHWVRQAPGKGLEWVAQIKDKGNAYAAYYAPSVKGRFTISRDDSKNSIYLQMNSLKTEDTAVYYCHYVHYASASTVLPAFGVDAWGQGTTVTVSS
VL: DIVMTQSPLSLPVTPGEPASISCQASQELVHMNRNTYLHWYQQKPGQAPRLLIYKVSNRFPGVPDRFSGSGSGTDFTLKISRVEAEDVGVYYCAQGTSVPFTFGQGTKLEIK
B17: H183/L072 VH N31Q (antibody, name in Kabat numbering, V domains shown)
VH: QVQLVESGGGLVQPGRSLRLSCAASGFTFSQAWMHWVRQAPGKGLEWVAQIKDKGNAYAAYYAPSVKGRFTISRDDSKNSIYLQMNSLKTEDTAVYYCHYVHYASASTVLPAFGVDAWGQGTTVTVSS
VL: DIVMTQSPLSLPVTPGEPASISCQASQELVHMNRNTYLHWYQQKPGQAPRLLIYKVSNRFPGVPDRFSGSGSGTDFTLKISRVEAEDVGVYYCAQGTSVPFTFGQGTKLEIK
B18: H183/L072 VH N31H (antibody, name in Kabat numbering, V domains shown)
VH: QVQLVESGGGLVQPGRSLRLSCAASGFTFSHAWMHWVRQAPGKGLEWVAQIKDKGNAYAAYYAPSVKGRFTISRDDSKNSIYLQMNSLKTEDTAVYYCHYVHYASASTVLPAFGVDAWGQGTTVTVSS
VL: DIVMTQSPLSLPVTPGEPASISCQASQELVHMNRNTYLHWYQQKPGQAPRLLIYKVSNRFPGVPDRFSGSGSGTDFTLKISRVEAEDVGVYYCAQGTSVPFTFGQGTKLEIK
B19: H183/L072 VH M34Y (antibody, name in Kabat numbering, V domains shown)
VH: QVQLVESGGGLVQPGRSLRLSCAASGFTFSNAWYHWVRQAPGKGLEWVAQIKDKGNAYAAYYAPSVKGRFTISRDDSKNSIYLQMNSLKTEDTAVYYCHYVHYASASTVLPAFGVDAWGQGTTVTVSS
VL: DIVMTQSPLSLPVTPGEPASISCQASQELVHMNRNTYLHWYQQKPGQAPRLLIYKVSNRFPGVPDRFSGSGSGTDFTLKISRVEAEDVGVYYCAQGTSVPFTFGQGTKLEIK
B20: H183/L072 VH P61A (antibody, name in Kabat numbering, V domains shown)
VH: QVQLVESGGGLVQPGRSLRLSCAASGFTFSNAWMHWVRQAPGKGLEWVAQIKDKGNAYAAYYAASVKGRFTISRDDSKNSIYLQMNSLKTEDTAVYYCHYVHYASASTVLPAFGVDAWGQGTTVTVSS
VL: DIVMTQSPLSLPVTPGEPASISCQASQELVHMNRNTYLHWYQQKPGQAPRLLIYKVSNRFPGVPDRFSGSGSGTDFTLKISRVEAEDVGVYYCAQGTSVPFTFGQGTKLEIK

The target of this test is T1, Human CD137 ECD (human).
T1 construct: also called 4-1BB
T1 sequence (chain, as listed by the source limits assumed): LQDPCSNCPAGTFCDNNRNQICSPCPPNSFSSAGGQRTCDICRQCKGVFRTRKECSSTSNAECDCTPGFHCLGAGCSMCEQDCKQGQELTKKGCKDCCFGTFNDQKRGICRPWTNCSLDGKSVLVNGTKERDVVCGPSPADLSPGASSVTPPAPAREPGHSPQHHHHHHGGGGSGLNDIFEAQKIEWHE
The test can be described thus: single mutant vs template dBBDu183H.
On to B1, for which the “fold change of affinity” value was 0.3 fold.
As to B2, the “fold change of affinity” value worked out at 0.3 fold.
The result for B3 reads 0 fold; that for B4, 0.5 fold.
The result for B5 reads 0.3 fold.
In the case of B6 it was 0.4 fold; in that of B7, 0 fold; in that of B8, 0.3 fold.
Regarding B9, the “fold change of affinity” value was 0.3 fold.
With B10, the “fold change of affinity” value was determined as 0.3 fold.
Take B11: the “fold change of affinity” value worked out at 0.5 fold.
The result for B12 reads 1 fold; that for B13, 0.6 fold; that for B14, 0.2 fold.
With B15, the “fold change of affinity” value was 0.2 fold.
As to B16, the “fold change of affinity” value worked out at 0.3 fold.
Turning to B17, the “fold change of affinity” value was found to be 0.2 fold.
With B18, the “fold change of affinity” value came to 0.4 fold.
The result for B19 reads 0 fold.
Regarding B20, the “fold change of affinity” value was 0.8 fold.
